Assay [1] deals with FXa/FVa (prothrombinase components) (UniProt P00742). Kind of assay: cell-based or functional assay.
Assay [2] has as its target FXa/FVa (prothrombinase components) (UniProt P00742 41-179; P00742 235-488; P12259 29-737; P12259 1574-2224). Kind of assay: cell-based or functional assay.
The target in assay [3] is T1, C4b-binding protein (human, UniProt P04003 49-597; P20851 18-252).
T1 construct: Endogenous plasma protein; also called C4BP
T1 sequence (looked up) 1: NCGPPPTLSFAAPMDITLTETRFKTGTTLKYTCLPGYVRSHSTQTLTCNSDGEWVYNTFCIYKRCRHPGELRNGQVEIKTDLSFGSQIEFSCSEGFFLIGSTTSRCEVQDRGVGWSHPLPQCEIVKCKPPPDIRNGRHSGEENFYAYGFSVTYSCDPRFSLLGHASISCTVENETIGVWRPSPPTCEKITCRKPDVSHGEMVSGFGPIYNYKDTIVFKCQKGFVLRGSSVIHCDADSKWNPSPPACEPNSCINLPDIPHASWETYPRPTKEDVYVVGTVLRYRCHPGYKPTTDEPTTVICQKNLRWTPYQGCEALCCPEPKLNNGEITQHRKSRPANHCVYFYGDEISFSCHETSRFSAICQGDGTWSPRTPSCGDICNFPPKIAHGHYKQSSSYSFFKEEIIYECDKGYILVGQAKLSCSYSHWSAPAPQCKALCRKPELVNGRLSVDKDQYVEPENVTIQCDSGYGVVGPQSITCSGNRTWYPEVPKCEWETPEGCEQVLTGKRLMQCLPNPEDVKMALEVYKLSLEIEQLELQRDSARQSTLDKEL
T1 sequence (looked up) 2: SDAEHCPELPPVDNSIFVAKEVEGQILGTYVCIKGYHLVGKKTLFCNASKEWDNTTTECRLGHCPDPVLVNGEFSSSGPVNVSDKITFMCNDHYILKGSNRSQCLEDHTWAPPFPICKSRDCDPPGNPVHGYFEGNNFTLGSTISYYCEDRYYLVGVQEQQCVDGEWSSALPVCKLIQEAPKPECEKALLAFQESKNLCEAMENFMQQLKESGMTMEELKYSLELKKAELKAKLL
Kind of assay: complex in hirudin-plasma, Superose-6 gel filtration and immunoblot from native PAGE. As for the experimental part:
Gel filtration - - - Purified protein S preparations or hirudin-plasma (200 μl ) were fractionated on a 1×30 cm Superose-6 HR column using Fast Performance Liquid Chromatography (Amersham-Pharmacia, Piscattaway, N.J.) at a flow rate of 0.4 ml/min in Hepes-buffered saline (HBS). Hirudin and citrated plasmas (300 ul) were each mixed with 700 μl of 50 mM benzamidine and fractionated on a 1.6×60 cm Sephacryl-300 column at a flow rate of 0.4 ml/min in Tris-buffered saline. Fractions were analyzed for protein S antigen by ELISA, for protein S multimers by native PAGE, and for PS-direct. ELISAs were also performed on the fractions for FV, FX, and C4BP antigens
Fractionation of plasma - - - When hirudin-plasma was gel-filtered on Superose-6 (FIG. 8A), forms that could be identified by immunoblotting from native PAGE were PS-C4BP complexes (fractions 31-39), followed by putative protein S multimers of three types (arrows), and monomeric protein S (fractions 47-54). A smeared band near the void volume marked with ? […] The original quantity of multimers may have been greater than seen in FIG. 8A, since there was evidence of dissociation to monomer in most fractions. […]

Assay [4] addresses T2, human protein C (human, UniProt P04070 43-197; P04070 200-461).
T2 construct: Control vitamin K-dependent protein on the ligand blot (200 ng)
The experiment in a line: ligand blot from native 10% PAGE, biotin-DIP-FXa, streptavidin-HRP. The method, then: (§1) For ligand blotting, FXa was treated with diisoproylfluorophosphate until >95% of its amidolytic activity was lost and then biotinylated as described (Heeb, et al. (1994) Proc. Natl. Acad. Sci. USA 91, 2728-2732). Blots containing 200 ng of protein S or control proteins were incubated with 3 μg/ml of this DIP-FXa for 1 h, followed by streptavidin-horse radish peroxidase (Pierce), chemiluminescent substrate and film exposure.
(§2) Ligand blotting of DIP-FXa to protein S monomers and dimers - - - Biotin-DIP-FXa could ligand blot to both protein S monomers and dimers, but not to two other vitamin K-dependent proteins (FIG. 3). DIP-FXa ligand blotted to monomers and multimers of protein S on native 10% PAGE, but not to human protein C or recombinant human Gas6. […] Note that protein S no. 1 has few monomers compared to protein S no. 2,and protein S no. 2 is <50% monomeric. (see FIG. 4).

In assay [5] the target is T3, recombinant human Gas6 (human, UniProt Q14393 49-678, limits assumed).
T3 construct: Control vitamin K-dependent protein on the ligand blot (200 ng)
T3 sequence (looked up): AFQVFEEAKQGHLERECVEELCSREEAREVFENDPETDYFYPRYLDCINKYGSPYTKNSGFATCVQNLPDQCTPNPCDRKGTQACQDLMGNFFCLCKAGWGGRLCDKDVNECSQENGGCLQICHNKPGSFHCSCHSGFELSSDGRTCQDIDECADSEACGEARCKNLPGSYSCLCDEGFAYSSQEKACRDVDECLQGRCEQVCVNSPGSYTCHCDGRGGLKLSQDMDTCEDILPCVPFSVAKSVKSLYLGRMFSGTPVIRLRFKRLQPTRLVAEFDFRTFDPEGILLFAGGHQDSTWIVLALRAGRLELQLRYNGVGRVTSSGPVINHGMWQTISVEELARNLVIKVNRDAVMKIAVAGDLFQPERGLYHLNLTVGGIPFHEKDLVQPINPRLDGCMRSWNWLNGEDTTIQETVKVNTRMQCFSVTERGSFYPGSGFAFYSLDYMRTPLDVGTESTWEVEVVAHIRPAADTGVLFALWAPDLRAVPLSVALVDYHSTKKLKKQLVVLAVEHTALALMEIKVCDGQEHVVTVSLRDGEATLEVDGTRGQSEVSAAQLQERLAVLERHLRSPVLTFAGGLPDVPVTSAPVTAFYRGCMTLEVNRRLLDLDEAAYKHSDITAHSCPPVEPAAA
The assay is described as above. As for the experimental part:
as §1, §2

Sequence of FXa/FVa (prothrombinase components) (UniProt P00742) (P12259 29-737 limits assumed, chain 3 of 2): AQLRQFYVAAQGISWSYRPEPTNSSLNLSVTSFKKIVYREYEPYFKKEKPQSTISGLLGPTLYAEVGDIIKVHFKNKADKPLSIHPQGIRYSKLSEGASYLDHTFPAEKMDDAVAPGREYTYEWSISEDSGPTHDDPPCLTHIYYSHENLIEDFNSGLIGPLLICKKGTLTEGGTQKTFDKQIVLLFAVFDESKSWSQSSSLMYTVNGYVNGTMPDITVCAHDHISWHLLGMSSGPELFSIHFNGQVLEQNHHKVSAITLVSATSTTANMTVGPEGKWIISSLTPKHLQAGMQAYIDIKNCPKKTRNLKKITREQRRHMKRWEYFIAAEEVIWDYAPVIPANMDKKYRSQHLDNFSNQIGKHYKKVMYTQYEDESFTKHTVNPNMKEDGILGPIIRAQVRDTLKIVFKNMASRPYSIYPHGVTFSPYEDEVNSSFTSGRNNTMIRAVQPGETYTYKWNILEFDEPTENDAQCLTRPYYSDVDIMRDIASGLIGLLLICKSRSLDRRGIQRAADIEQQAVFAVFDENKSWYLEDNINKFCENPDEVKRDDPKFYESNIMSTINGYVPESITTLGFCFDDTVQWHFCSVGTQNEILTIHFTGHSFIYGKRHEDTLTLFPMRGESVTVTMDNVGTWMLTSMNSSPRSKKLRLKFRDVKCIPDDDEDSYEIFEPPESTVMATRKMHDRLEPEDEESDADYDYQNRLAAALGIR
Sequence of FXa/FVa (prothrombinase components) (UniProt P00742) (P12259 1574-2224 limits assumed, chain 4 of 2): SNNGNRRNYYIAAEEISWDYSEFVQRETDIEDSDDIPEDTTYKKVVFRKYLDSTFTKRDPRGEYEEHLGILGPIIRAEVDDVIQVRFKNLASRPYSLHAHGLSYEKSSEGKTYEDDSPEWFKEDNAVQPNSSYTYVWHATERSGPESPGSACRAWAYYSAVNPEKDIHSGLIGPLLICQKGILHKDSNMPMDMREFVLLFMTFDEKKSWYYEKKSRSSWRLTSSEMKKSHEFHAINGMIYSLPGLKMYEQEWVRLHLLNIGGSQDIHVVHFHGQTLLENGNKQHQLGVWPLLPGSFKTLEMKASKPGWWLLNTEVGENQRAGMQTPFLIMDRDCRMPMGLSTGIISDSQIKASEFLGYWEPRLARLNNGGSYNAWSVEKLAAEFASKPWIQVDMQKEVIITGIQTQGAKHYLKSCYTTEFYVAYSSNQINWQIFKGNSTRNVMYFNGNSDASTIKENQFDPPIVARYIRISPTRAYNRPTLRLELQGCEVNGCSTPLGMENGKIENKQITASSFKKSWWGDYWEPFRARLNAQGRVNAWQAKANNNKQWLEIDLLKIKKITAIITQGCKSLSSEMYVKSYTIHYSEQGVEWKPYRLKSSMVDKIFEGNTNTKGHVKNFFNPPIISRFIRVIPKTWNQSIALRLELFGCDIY
Sequence of FXa/FVa (prothrombinase components) (UniProt P00742 41-179; P00742 235-488; P12259 29-737; P12259 1574-2224) (P12259 29-737 limits assumed, chain 3 of 2): as the sequence (P12259 29-737 limits assumed, chain 3 of 2) above
Sequence of FXa/FVa (prothrombinase components) (UniProt P00742 41-179; P00742 235-488; P12259 29-737; P12259 1574-2224) (P12259 1574-2224 limits assumed, chain 4 of 2): as the sequence (P12259 1574-2224 limits assumed, chain 4 of 2) above
T2 sequence (P04070 43-197, chain 1 of 2): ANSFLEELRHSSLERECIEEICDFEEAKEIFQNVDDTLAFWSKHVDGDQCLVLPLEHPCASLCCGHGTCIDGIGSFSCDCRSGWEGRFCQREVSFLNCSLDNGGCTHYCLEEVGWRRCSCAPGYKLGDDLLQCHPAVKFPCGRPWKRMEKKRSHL
T2 sequence (P04070 200-461, chain 2 of 2): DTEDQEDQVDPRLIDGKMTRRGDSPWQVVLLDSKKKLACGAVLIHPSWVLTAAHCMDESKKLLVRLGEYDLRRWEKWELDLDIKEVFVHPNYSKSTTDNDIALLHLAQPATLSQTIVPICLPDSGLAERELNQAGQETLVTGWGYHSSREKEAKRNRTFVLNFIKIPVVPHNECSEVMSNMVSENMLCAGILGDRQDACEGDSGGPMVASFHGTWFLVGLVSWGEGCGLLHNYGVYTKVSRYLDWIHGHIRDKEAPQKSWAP

In assay [1], “protein S Dimer-Trimer fraction (from UniProt P07225 42-676)” showed an Inhibition of prothrombinase, IC50 @ 25 µM PL, nM (total moles of protein S monomeric subunits) of 116 nM and an Inhibition of prothrombinase, IC50 @ 25 µM PL, nM of specific form of 46 nM.

Regarding “protein S forms >Trimer (from UniProt P07225 42-676)”, in assay [1], the Inhibition of prothrombinase, IC50 @ 25 µM PL, nM (total moles of protein S monomeric subunits) was found to be 111 nM and the Inhibition of prothrombinase, IC50 @ 25 µM PL, nM of specific form worked out at 28 nM.

In assay [1], “protein S Trimer (from UniProt P07225 42-676)” displayed an Inhibition of prothrombinase, IC50 @ 25 µM PL, nM (total moles of protein S monomeric subunits) of 113 nM and an Inhibition of prothrombinase, IC50 @ 25 µM PL, nM of specific form of 38 nM.

B1: protein S monomers (purified) (other, UniProt P07225 42-676, looked up)
chain: ANSLLEETKQGNLERECIEELCNKEEAREVFENDPETDYFYPKYLVCLRSFQTGLFTAARQSTNAYPDLRSCVNAIPDQCSPLPCNEDGYMSCKDGKASFTCTCKPGWQGEKCEFDINECKDPSNINGGCSQICDNTPGSYHCSCKNGFVMLSNKKDCKDVDECSLKPSICGTAVCKNIPGDFECECPEGYRYNLKSKSCEDIDECSENMCAQLCVNYPGGYTCYCDGKKGFKLAQDQKSCEVVSVCLPLNLDTKYELLYLAEQFAGVVLYLKFRLPEISRFSAEFDFRTYDSEGVILYAESIDHSAWLLIALRGGKIEVQLKNEHTSKITTGGDVINNGLWNMVSVEELEHSISIKIAKEAVMDINKPGPLFKPENGLLETKVYFAGFPRKVESELIKPINPRLDGCIRSWNLMKQGASGIKEIIQEKQNKHCLVTVEKGSYYPGSGIAQFHIDYNNVSSAEGWHVNVTLNIRPSTGTGVMLALVSGNNTVPFAVSLVDSTSEKSQDILLSVENTVIYRIQALSLCSDQQSHLEFRVNRNNLELSTPLKIETISHEDLQRQLAVLDKAMKAKVATYLGGLPDVPFSATPVNAFYNGCMEVNINGVQLDLDEAISKHNDIRAHSCPSVWKKTKNS
For B1, in assay [2], the “Inhibition of prothrombinase, IC50 @ 25 µM PL, nM (total moles of protein S monomeric subunits)” value came to 119 nM and the “Inhibition of prothrombinase, IC50 @ 25 µM PL, nM of specific form” value was 119 nM of specific form.

B2: monomeric protein S in plasma (other, human, UniProt P07225 42-676, looked up)
chain: ANSLLEETKQGNLERECIEELCNKEEAREVFENDPETDYFYPKYLVCLRSFQTGLFTAARQSTNAYPDLRSCVNAIPDQCSPLPCNEDGYMSCKDGKASFTCTCKPGWQGEKCEFDINECKDPSNINGGCSQICDNTPGSYHCSCKNGFVMLSNKKDCKDVDECSLKPSICGTAVCKNIPGDFECECPEGYRYNLKSKSCEDIDECSENMCAQLCVNYPGGYTCYCDGKKGFKLAQDQKSCEVVSVCLPLNLDTKYELLYLAEQFAGVVLYLKFRLPEISRFSAEFDFRTYDSEGVILYAESIDHSAWLLIALRGGKIEVQLKNEHTSKITTGGDVINNGLWNMVSVEELEHSISIKIAKEAVMDINKPGPLFKPENGLLETKVYFAGFPRKVESELIKPINPRLDGCIRSWNLMKQGASGIKEIIQEKQNKHCLVTVEKGSYYPGSGIAQFHIDYNNVSSAEGWHVNVTLNIRPSTGTGVMLALVSGNNTVPFAVSLVDSTSEKSQDILLSVENTVIYRIQALSLCSDQQSHLEFRVNRNNLELSTPLKIETISHEDLQRQLAVLDKAMKAKVATYLGGLPDVPFSATPVNAFYNGCMEVNINGVQLDLDEAISKHNDIRAHSCPSVWKKTKNS
notes: mature; also called monomers
In the case of B2, the binding result in assay [3] is listed as “binds”.

B3: protein S dimers (purified) (other, UniProt P07225 42-676, looked up)
chain: ANSLLEETKQGNLERECIEELCNKEEAREVFENDPETDYFYPKYLVCLRSFQTGLFTAARQSTNAYPDLRSCVNAIPDQCSPLPCNEDGYMSCKDGKASFTCTCKPGWQGEKCEFDINECKDPSNINGGCSQICDNTPGSYHCSCKNGFVMLSNKKDCKDVDECSLKPSICGTAVCKNIPGDFECECPEGYRYNLKSKSCEDIDECSENMCAQLCVNYPGGYTCYCDGKKGFKLAQDQKSCEVVSVCLPLNLDTKYELLYLAEQFAGVVLYLKFRLPEISRFSAEFDFRTYDSEGVILYAESIDHSAWLLIALRGGKIEVQLKNEHTSKITTGGDVINNGLWNMVSVEELEHSISIKIAKEAVMDINKPGPLFKPENGLLETKVYFAGFPRKVESELIKPINPRLDGCIRSWNLMKQGASGIKEIIQEKQNKHCLVTVEKGSYYPGSGIAQFHIDYNNVSSAEGWHVNVTLNIRPSTGTGVMLALVSGNNTVPFAVSLVDSTSEKSQDILLSVENTVIYRIQALSLCSDQQSHLEFRVNRNNLELSTPLKIETISHEDLQRQLAVLDKAMKAKVATYLGGLPDVPFSATPVNAFYNGCMEVNINGVQLDLDEAISKHNDIRAHSCPSVWKKTKNS
For B3, in assay [2], the “Inhibition of prothrombinase, IC50 @ 25 µM PL, nM (total moles of protein S monomeric subunits)” value was 109 nM and the “Inhibition of prothrombinase, IC50 @ 25 µM PL, nM of specific form” value was 54 nM of specific form.

B4: Biotin-DIP-FXa (enzyme)
chain 1: ANSFLEEMKKGHLERECMEETCSYEEAREVFEDSDKTNEFWNKYKDGDQCETSPCQNQGKCKDGLGEYTCTCLEGFEGKNCELFTRKLCSLDNGDCDQFCHEEQNSVVCSCARGYTLADNGKACIPTGPYPCGKQTLER
chain 2: IVGGQECKDGECPWQALLINEENEGFCGGTILSEFYILTAAHCLYQAKRFKVRVGDRNTEQEEGGEAVHEVEVVIKHNRFTKETYDFDIAVLRLKTPITFRMNVAPACLPERDWAESTLMTQKTGIVSGFGRTHEKGRQSTRLKMLEVPYVDRNSCKLSSSFIITQNMFCAGYDTKQEDACQGDSGGPHVTRFKDTYFVTGIVSWGEGCARKGKYGIYTKVTAFLKWIDRSMKTRGLPKAKSHAPEVITSSPLK
modifications: treated with diisoproylfluorophosphate until >95% of its amidolytic activity was lost and then biotinylated; biotinylated (sites not given)
notes: Used at 3 µg/ml as probe in ligand blots; also called FXa treated with diisopropylfluorophosphate and biotinylated
For B4, the binding result in assay [4] and in assay [5] was “no binding” in each case.

Source of the values: patent publication US20070077603A1 (published 2007).
